Measurements: the nanobody polyreactivity screen of Harvey et al. (2022)

Test: yeast display, Sf9 membrane polyspecificity reagent, FACS + sequencing; frameworks hold sequencing errors
Method in brief: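 After 36–48 hours of galactose induction, yeast (Saccharomyces cerevisiae BJ5465) displaying a synthetic nanobody library were stained at 4 °C for 1 hour with 10% biotinylated, detergent-solubilized Sf9 membrane reagent. Streptavidin microbeads enriched the stained cells before FACS sorting into low and high (top ~1%) gates on anti-HA and streptavidin fluorescence. Each clone's polyreactivity label reflects its gate of origin.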

Sequence	polyreactivity (PSR sort gate)
QVQLVESGGGLVQAGGSLRLSCAASGFTITRNTMGWYRQAPGKERELVAAITRGGSTNYADSVKGRFTISRDNAKNSVYLQMNSLKPEDTAVYYCNKGRNVVLVRTADDYWGQGTQVTVSS	low polyreactivity
QVQLVESGGGLVQAGGSLRLSCAASGFTIWWYAMRWYRQATGKERELVATITSGGRTYYADSVKGRFTISRDNAKNTDYLQMNSLKPEDTAVYYCAAESEVGYVYDPMYYWGQGTQVTVSS	high polyreactivity
QVQLVESGGGLVQAGGSLRLSCAASGFTIYAYTMGWYRQAPGKERDLVASITSRGGTTYYADSVKGRFTISRDNEKNTVYLQMNSLKPEDTAVYYCNARGYFGWYAMDYCGQGTQVTVSS	high polyreactivity
QVQLVESGGGLVQAGGSLRLSCAASGFTIYGNAMGWSRQAPGKERELVAAITWRGGSTYYADSVKGRFTISRDNAKNTVYLQMNSLKPEDTAVYYCAARWLLGYYRYDYWGQGTQVTVSS	high polyreactivity
QVQLVESGGGLVQAGGSLRLSCAASGFTIYGYVMGWYRQAPGKERELVAAISWSGGSTYYADSVKGRFTISRDNAKNTVYLQMNSLKPEDTAVYYCAAEGWSDYTSRLYDYWGQGTQVTVSS	low polyreactivity
QVQLVESGGGLVQAGGSLRLSCAASGFTIYNNVMVWYRQAPGKERELVAAITSSGGRTYYADSVKGRFTISRDIAKNTVYLQMNSLKPEDTAVYYCNALYFRKGGYWGQGTQVTVSS	high polyreactivity
QVQLVESGGGLVQAGGSLRLSCAASGFTIYYYAMGWDRQAPGKERELVASITSGGSTYYADSVKGRFTISRDNAKNTVYLQMNSLKPEDTAVYYCAADYYSPSLRYDYWGQGTQVTVSS	low polyreactivity
QVQLVESGGGLVQAGGSLRLSCAASGFTLADNTMGWYRQAPGKERQLVATISSDGNTNYADSVKGRFTISRDNAKNTVYLQMNSLKPEDTAVYYCNAEGVFGDVRSGFYWYDYWGQGTQVTVSS	low polyreactivity
QVQLVESGGGLVQAGGSLRLSCAASGFTLDDNGMGWYRPAPGKECELVESITWSGGSTDYADSVKGRFTISRDTAKNTVYLQMNSLKPEDTAVYSCNVGDPIGGFLSYWGGDYWGQGTQVTVSS	low polyreactivity
QVQLVESGGGLVQAGGSLRLSCAASGFTLFANVMGWYRQAPGKERELVAAISWRSGNTYYADSVKGRFTISRDNAKNTVYLQMNSLKPEDTAVYYCAADTTGDQHSWGTSGIIEGDYWGQGTQVTVSS	low polyreactivity
QVQLVESGGGLVQAGGSLRLSCAASGFTLFQNAMGWYRQAPGKERELVAAISTGGSTYYADSVKGRFTISRDNAKNTVYLQMNSLKPEDTAVYYCAAVWPYRGSRKYYSWGQGTQVTVSS	high polyreactivity
QVQLVESGGGLVQAGGSLRLSCAASGFTLFTNAMGWYRQAPWKERELLARISRGGSTKYADSVKGRFTISRDNAKNTVYLQMNSLKREDTAVYSCATGYYGYRYGYWGQGTQVTVSS	high polyreactivity
QVQLVESGGGLVQAGGSLRLSCAASGFTLGVYTMGGSRQAPGKVRELVARITSGGRTYSADSVKGRFTISRDNAKNSVYLQMNSLQPEDTAVYYCAKVDGRRTYYTVHRYERDYWGQGTQVTVSS	low polyreactivity
QVQLVESGGGLVQAGGSLRLSCAASGFTLIHYAMGWYRQATGKERELVAGITTSGGSTYYADSVKGRFTFSRDNAKNTVYLQMTSLKPEDTAVYYCNRLTRRWYSLRSYDYWGQGTQVTVSS	high polyreactivity
QVQLVESGGGLVQAGGSLRLSCAASGFTLKQYAMGWYRQAPGKERELVAAIRWSGGSTNYADSVKGRFTISRDNAKNTVYLQMNSLKPEDTAVYYCAADFRTPYFGIRYGYWGQGTQVTVSS	high polyreactivity
QVQLVESGGGLVQAGGSLRLSCAASGFTLLGYAMGWYRQAPGKERELVAAISYSGVSTDYADSVKGRFTISRDNAKNTVYLQMNSLKPEDTAVSYCIAVSTDSFLQDYNYWGQGTQVTVSS	low polyreactivity
QVQLVESGGGLVQAGGSLRLSCAASGFTLQQYTMGWYRQAPGKERELVAAISTSGVRTYYADSVKGRFTISRDNAKNTVYLQMNSLKPEDTAVYYCNAKVRKSRFYYWGQGTQVTVSS	high polyreactivity
QVQLVESGGGLVQAGGSLRLSCAASGFTLRVNAMGWYRHPPGKERELVAAISDSGGDTYYADSVKGRFTISRDNAKNTVYLQMNSLKPEDTAVYYCAADDGSENDYWGQGTQVTVSS	low polyreactivity
QVQLVESGGGLVQAGGSLRLSCAASGFTLTQNAMGWYRQAPGKERELVAAISRSGGRTYYADSVKGRFTISRDNAKNTVYLQMNSLKPEDTAVYYCNAYVTYPGTTMDDWGQGTQVTVSS	high polyreactivity
QVQLVESGGGLVQAGGSLRLSCAASGFTLVKYVMGWYRQAPGKERELVAAINRSGTSTYYADSVKGRFTISRDNAKNTVYLQMNCLKPDDTAVYYCAADRSRNFDWGQGTQVTVSS	high polyreactivity
QVQLVESGGGLVQAGGSLRLSCAASGFTLWLNAMGWYRQAPGKERELLAAITTSDDGTYYADSVKGRFTISRDNAKNTVYLQMNSLKPEETAVYYCAADYYSVQYDYWGQGTQVTVSS	low polyreactivity

Sequence	polyreactivity (PSR sort gate)
QVQLVESGGGLVQAGGSLRLSCAASGFTLWLYAMGWYRQAPGKERELVATISYRGDSTYYADSVKGRFTISRDNAKNTVYLQMNSLKPEDTAVYYCARRYTHTGRYYYWGQGTQVTVSS	high polyreactivity
QVQLVESGGGLVQAGGSLRLSCAASGFTLWYYAMGWYRQAPGKERELVAGINSGGRTYYADSVKGRFTISRDNAKNTVYLQMNSLKPEDTAVYNCNARAWSSISHNSYIMDYWGQGTQVTVSS	high polyreactivity
QVQLVESGGGLVQAGGSLRLSCAASGFTLYRNAMGWNRQAPGKERELVAAISSSGGRTYYADSVKGRFTISRDNAKNTVYLQMNSLKPEDTAVYYCAADFYRYGPQLGYWGQATQVTVSS	high polyreactivity
QVQLVESGGGLVQAGGSLRLSCAASGFTPGNVMGWYRQAPGKERELVAAISWSGDSTYYADSVKGRFTISRDNAKNTVYLQMNSLKPEDTAVYYCAARVVGSYRKTYPYGLYYWGQGTQVTVSS	high polyreactivity
QVQLVESGGGLVQAGGSLRLSCAASGFTSCDNDMGWYRQAPGKERELVAAISRGGSTNYADSVKGRFTISRDNAKNTVYLQMNSLKPEDTAVYYCATAAVTPVWYDYWGKGTQVTVSS	low polyreactivity
QVQLVESGGGLVQAGGSLRLSCAASGFTSRRYVMGWYRQAPGKERELVAAISSRGTSTYYADSVKGRFTISRDNAKNTVYLKMNSLKPEDTAVYYCAAVIRGRTRWLKYDYWGQGTQGTVSS	high polyreactivity
QVQLVESGGGLVQAGGSLRLSCAASGFTSSRNAMGWYRQAPGKERELVAAISSGTSTNYADSVKGRFTISRDNAKNTVYLQMNSLKPEDTAVYYCAAGSYSRYLYSLYFDFDYWGQGTQVTVSS	low polyreactivity
QVQLVESGGGLVQAGGSLRLSCAASGFTSSYYAMGWYRQAPGKERELVAAISSSGGSTYYADSVKGRFTISRDNAKNTVYLQMNSLKPEDTAVYYCAAARRERAGRQYDYWGQGTQVTVSS	low polyreactivity
QVQLVESGGGLVQAGGSLRLSCAASGFTSWHNDMGRYRQATGKERELVAAIDTGTGTYYADSVKGRFTISRDNAKNTVYLQLYSLKPEDTAVYYCAKDDLLVVRIVWFDYWGLGTQVTVSS	low polyreactivity
QVQLVESGGGLVQAGGSLRLSCAASGFTVGVYAMGWYRQAPGKERELVAAISSGGSTNYADSVKGRFTISRDNAKNTVYLQMNSLKPEDTAVYYCAADAVSGGQGTADYDYWGQGTQVTVSS	low polyreactivity
QVQLVESGGGLVQAGGSLRLSCAASGFTVGVYAMGWYRQAPGKERELVAAISSGGSTNYADSVKGRFTISRDNAKNTVYLQMNSLKPEDTAVYYCAKDVWYLVYYHWKSNRVWQYDYWGQGTQVTVSS	low polyreactivity
QVQLVESGGGLVQAGGSLRLSCAASGFTVGYYAMAWYRQAPGKERELVAAISYVGGTTYYADSVKGRFTISRDNAKKTVYLQMNSLKPEDTAVYYCATLYRGSVRYYYWGQGTQVTVSS	high polyreactivity
QVQLVESGGGLVQAGGSLRLSCAASGFTVWYYAMGWYRQAPGKVRELVASISSIGGSTYYADSVKGRFTISRENAKNTVYLQMNSLKPEDTAVYYCAARYKFLRGVVRRDYWGQGTQVTVSS	high polyreactivity
QVQLVESGGGLVQAGGSLRLSCAASGFTYGANTMGWYRQAPGKERELVADISVRGDRTSYADSVKGRFTISRDNAKNTVYLPMNSLKPEDTAVYYCATDIYQHAKRRYDYWGQGTQVTVSS	low polyreactivity
QVQLVESGGGLVQAGGSLRLSCAASGFTYGINAMGWYRQAPGKERELVASISSGSSTTYADSVKGRFTISRDNATNTVYLQMISLKPEDTAVYYCNARPFHIYWRYDYWGQGTQVTVSS	low polyreactivity
QVQLVESGGGLVQAGGSLRLSCAASGFTYGRYAMGWYRQAPGKERELVAVISWSGVSTYYADSVKGRFTISRDNAKNTVYLQMNSLKPEDTAVYYCNKRSYHYPYGYDYWGQGTQVTVSS	high polyreactivity
QVQLVESGGGLVQAGGSLRLSCAASGFTYLRYAMGWYRQAPGKERELVAAISFSGDTTNYADSVKGRFTISRDNAKNTVYLQMNSLKPEDTAVYYCAASYGGGYYSDRGYYYWGQGTQVTVSS	low polyreactivity
QVQLVESGGGLVQAGGSLRLSCAASGFTYLYAMGWYRQAPGKESELDAAISYSGGSTYYADSVKGRFTISRDNAKNTVYLQMNSMKPEDTAVYYCAAGYGTVRGVSYDYWGQGTQVTVSS	low polyreactivity
QVQLVESGGGLVQAGGSLRLSCAASGFTYPPYAMGWYRQAPGKERELVAAISSAGSTKYADSVKGRFTISRDNAKNTVYLQMNSLKPEDTAVYYCAARWARSYDYWGQGTQVTVSS	low polyreactivity
QVQLVESGGGLVQAGGSLRLSCAASGGIDYTNAMGWYRQAPGKERELVAAIRKNGDSTNYADSVKGRFTISRDNAKNTVYLQMNSLKPEDTAVYYCNAELWPWAYDYWGQGTQVTVSS	low polyreactivity
